For 1 molecule, koff results are on record in paper PMC6838200 (2019).

Test [1] has as its target T1, Spa2-C (Spa2 C-terminal region, 1306-1466aa) (S. cerevisiae, UniProt P23201 1306-1466).
T1 chain: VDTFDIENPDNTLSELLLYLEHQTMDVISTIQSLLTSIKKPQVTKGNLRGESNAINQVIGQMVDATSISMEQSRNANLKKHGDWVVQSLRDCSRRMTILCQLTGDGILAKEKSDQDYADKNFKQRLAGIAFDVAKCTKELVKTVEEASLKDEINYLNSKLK
The test is described as follows: SPR; bivalent model, koff1. (Surface plasmon resonance follows binding to a sensor surface in real time, without labels.)

Test [2] deals with T1, Spa2-C (Spa2 C-terminal region, …). The test can be described thus: SPR; bivalent model, koff2 (second site).

The koff is a measure of how fast the partners let go of each other. Read a low koff as a long-lived complex.

B1: Aip5-N271 (domain or fragment)
chain: MVESLTVENQEHNVQPPSVTSAGDSYSTLATDLPLPSTNDIIESRDQLTESDLDEAINATENFAQELSSQRKSSKLKGHKKKNQGQIKANRDRDTIVKLSSSVGETEEASTRDAISHDLERKDDVIEIATDTINDATESPTQIPIDVNVVIKETSTNNVAEGTENVPPIKESTGIEVGNSPITRRKKNKKKKTTNRRGRNSSNPADTTDLSKQSTLDSILVGIEEYLQEDGSKNEDIKVNIVQDEPVNVEKMDIRTRNESSDKTFDIDVPN
Turning to B1, the koff turned out to be 0.046 s⁻¹ in test [1] and 0.00266 s⁻¹ in test [2].
